Earlier results on 2 molecules are cited in patent US12478627B2, “Irsogladine for the treatment of eosinophilic gastrointestinal diseases” (EPITHELION SCIENCE BIOTECH, S.L., priority 2019, dated 2025).

The subject of the series is EoE and EoGIDs. Particulars: patients with EoE or EoGIDs, literature reports.

B1: Resolizumab: mAb against IL-5 (antibody, chains of the INN, looked up, V domains shown)
VH: EVQLVESGGGLVQPGGSLRLSCAVSGLSLTSNSVNWIRQAPGKGLEWVGLIWSNGDTDYNSAIKSRFTISRDTSKSTVYLQMNSLRAEDTAVYYCAREYYGYFDYWGQGTLVTVSS
VL: DIQMTQSPSSLSASVGDRVTITCLASEGISSYLAWYQQKPGKAPKLLIYGANSLQTGVPSRFSGSGSATDYTLTISSLQPEDFATYYCQQSYKFPNTFGQGTKVEVK
B1: the clinical symptoms result is “did not correspond with clinical improvement” and the tissue eosinophil infiltrate result was “significant reduction”.

B2: Mepolizumab: mAb against IL-5 (antibody, chains of the INN, looked up, V domains shown)
VH: QVTLRESGPALVKPTQTLTLTCTVSGFSLTSYSVHWVRQPPGKGLEWLGVIWASGGTDYNSALMSRLSISKDTSRNQVVLTMTNMDPVDTATYYCARDPPSSLLRLDYWGRGTPVTVSS
VL: DIVMTQSPDSLAVSLGERATINCKSSQSLLNSGNQKNYLAWYQQKPGQPPKLLIYGASTRESGVPDRFSGSGSGTDFTLTISSLQAEDVAVYYCQNVHSFPFTFGGGTKLEIK
Take B2: the clinical symptoms entry was “did not correspond with clinical improvement” and the tissue eosinophil infiltrate entry is “significant reduction”.
